This assay deals with Neuropilin-1 (NRP-1) 22-644 (Homo sapiens, UniProt O14786). Description: SPR. On the technique in general: Surface plasmon resonance follows binding to a sensor surface in real time, without labels.

The values that follow come from doi:10.1101/2025.07.11.664294 (2025).

Bridges are numbered along the chain shown (N, C = ends).

Sequence of Neuropilin-1 (NRP-1) 22-644 (O14786 22-644): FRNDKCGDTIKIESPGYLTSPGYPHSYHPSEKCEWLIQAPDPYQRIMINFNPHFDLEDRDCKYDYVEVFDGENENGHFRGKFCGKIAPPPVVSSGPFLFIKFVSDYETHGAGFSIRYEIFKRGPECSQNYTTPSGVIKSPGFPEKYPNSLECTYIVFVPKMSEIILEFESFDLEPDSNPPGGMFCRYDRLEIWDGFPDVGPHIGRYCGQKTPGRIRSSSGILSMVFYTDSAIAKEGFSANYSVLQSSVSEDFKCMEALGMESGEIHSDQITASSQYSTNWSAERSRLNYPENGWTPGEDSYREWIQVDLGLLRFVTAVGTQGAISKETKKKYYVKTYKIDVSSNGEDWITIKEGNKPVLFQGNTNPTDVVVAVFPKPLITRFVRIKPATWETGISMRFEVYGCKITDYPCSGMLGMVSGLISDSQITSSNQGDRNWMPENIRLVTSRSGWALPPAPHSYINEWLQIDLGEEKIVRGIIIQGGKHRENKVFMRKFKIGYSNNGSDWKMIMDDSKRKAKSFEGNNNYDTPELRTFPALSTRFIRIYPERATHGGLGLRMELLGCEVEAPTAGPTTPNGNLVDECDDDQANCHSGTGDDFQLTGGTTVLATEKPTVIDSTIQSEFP

B1: P78 (Ctx fragment) 27-34 (peptide)
chain: Ac-KCYGPQCL-NH2
modifications: disulfide 2-7
SMILES: CC(=O)N[C@@H](CCCCN)C(=O)N[C@H]1CSSC[C@@H](C(=O)N[C@@H](CC(C)C)C(N)=O)NC(=O)[C@H](CCC(N)=O)NC(=O)[C@@H]2CCCN2C(=O)CNC(=O)[C@H](Cc2ccc(O)cc2)NC1=O
For the molecule B1, the Kd is 267 µM.

As a reminder, the Kd is the equilibrium constant for the complex coming apart.
